Experiments:
[1] = in vivo; cited from earlier work
in vivo = experiment: in vivo; parameters: species or system mice; conditions: mouse, iv, 1.48 Mbq, total radioactivity
Method: Organs and tumor tissues of interest were collected and weighed. The radioactivity was detected by a γ counter, and biological distribution results were calculated as a percent of an injection dose per gram of tissue (% ID/g).

AR42J tumor = experiment: MicroPET imaging in AR42J tumor-bearing mice; format: in vivo; conditions: unlabeled compound injected simultaneously with ^68Ga-DOTA-TATE, PET
Method: ^68Ga-TATE-EB-01 was prepared according to the method in Example 2. […] Results are shown in FIG. 4, FIG. 5, FIG. 6 and FIG. 7.

Cc1cc(-c2ccc(NC(=O)[C@H](CCCCNC(=O)CCN3C(=O)CC(SCCC(=O)N[C@H](Cc4ccccc4)C(=O)N[C@H]4CSSC[C@@H](C(=O)N[C@H](C(=O)O)[C@@H](C)O)NC(=O)[C@H]([C@@H](C)O)NC(=O)[C@H](CCCCN)NC(=O)[C@@H](Cc5c[nH]c6ccccc56)NC(=O)[C@H](Cc5ccc(O)cc5)NC4=O)C3=O)NC(=O)CN3CCN(CC(=O)O)CCN(CC(=O)O)CCN(CC(=O)O)CC3)c(C)c2)ccc1N=Nc1ccc2c(S(=O)(=O)O)cc(S(=O)(=O)O)c(N)c2c1O (single isomer, unassigned) [^177Lu-EB-TATE, metal not drawn]
half-life in the blood [1]: 9.47 h | half-life in the blood relative to Lutathera [1]: about 4 times

Cc1cc(-c2ccc(NC(=O)[C@H](CCCCNC(=O)CCOCCOCCC(=O)N[C@H](Cc3ccccc3)C(=O)N[C@H]3CSSC[C@@H](C(=O)N[C@H](C(=O)O)[C@@H](C)O)NC(=O)[C@H]([C@@H](C)O)NC(=O)[C@H](CCCCN)NC(=O)[C@@H](Cc4c[nH]c5ccccc45)NC(=O)[C@H](Cc4ccc(O)cc4)NC3=O)NC(=O)CN3CCN(CC(=O)O)CCN(CC(=O)O)CCN(CC(=O)O)CC3)c(C)c2)ccc1N=Nc1ccc2c(S(=O)(=O)O)cc(S(=O)(=O)O)c(N)c2c1O [^177Lu-TATE-EB-01, metal not drawn]
tissue uptake at 72 h (in vivo): 158 ± 20 %ID/g | tissue uptake at 96 h (in vivo): 112 ± 20.6 %ID/g

Cc1cc(-c2ccc(NC(=O)[C@H](CCCCNC(=O)CCOCCOCCC(=O)N[C@H](Cc3ccccc3)C(=O)N[C@H]3CSSC[C@@H](C(=O)N[C@H](C(=O)O)[C@@H](C)O)NC(=O)[C@H]([C@@H](C)O)NC(=O)[C@H](CCCCN)NC(=O)[C@@H](Cc4c[nH]c5ccccc45)NC(=O)[C@H](Cc4ccc(O)cc4)NC3=O)NC(=O)CN3CCN(CC(=O)O)CCN(CC(=O)O)CCN(CC(=O)O)CC3)c(C)c2)ccc1N=Nc1ccc2c(S(=O)(=O)O)cc(S(=O)(=O)O)c(N)c2c1O (single isomer, unassigned) [TATE-EB-01]
inhibition of tumor uptake of ^68Ga-DOTA-TATE (AR42J tumor): significantly inhibit tumor uptake
